Test results reported in US11149077B2, “Targeted therapeutics based on engineered proteins for tyrosine kinases receptors, including IGF-IR” (BRISTOL-MYERS SQUIBB COMPANY, priority 2006, dated 2021).

How the values were obtained:
human IGF-IR = target: T1, human IGF-IR (Homo sapiens, UniProt P08069); experiment: Surface plasmon resonance (BIAcore) binding kinetics and affinity on immobilized IGF-IR
T1 construct: The extracellular domain of human IGF-IR (aa 1-932) was cloned into a mammalian expression vector; made in house
Method: The binding kinetics of fibronectin-based scaffold proteins binding proteins to the target was measured using BIAcore 2000 or 3000 biosensors (Pharmacia Biosensor). A capture assay was developed utilizing an IGF-IR-Fc fusion. A similar reagent had been described by Forbes et al. (Forbes et al. 2002, European J. Biochemistry, 269, 961-968). The extracellular domain of human IGF-IR (aa 1-932) was cloned into a mammalian expression vector containing the hinge and constant regions of human IgG1. Transient transfection of the plasmid produced a fusion protein, IGF-IR-Fc which was subsequently purified by Protein A chromatography and captured on Protein A immobilized on Biasensor CM5 chips by amine coupling. The kinetic analysis involved the capture of IGF-IR-Fc on Protein A followed by injection of the fibronectin-based scaffold protein in solution and regeneration of the Protein A surface by glycine pH 2.0. Sensorgrams were obtained at each concentration and were evaluated using a program Biaevaluation, BIA Evaluation 2.0 (BIAcore), to determine the rate constants ka (kon) and kd (koff) The dissociation constant, KD was calculated from the ratio of rate constants koff/kon. Typically, a concentration series (2 uM to 0 uM) of purified fibronectin-based scaffold protein was evaluated for binding to protein A captured human IGF-IR-Fc fusion protein.

[1] = Differential scanning calorimetry (thermal stability, Tm); type: physicochemical; conditions: DSC
Method: Differential Scanning calorimetry (DSC) analysis of midscaled clones was performed to determine thermal stability. A 1 mg/ml solution of appropriate clone was scanned in a N-DSC II calorimeter (calorimetry Sciences Corp) by ramping the temperature from 5° C. to 95° C. at a rate of 1 degree per minute under 3 atm pressure. The data was analyzed vs. a control run of the appropriate buffer using a best fit using Orgin Software (OrginLab Corp).

RH41 sarcoma xenografts = experiment: In vivo antitumor activity in RH41 sarcoma xenografts; conditions: for % TGI: calculated on day 39; for LCK: gross log cell kill; for AVE weight change: Day 20 to Day 42
Method: *Tumor growth inhibition and probability values calculated on day 39. ^aVehicle was 80% PEG400, 20% dH2O. ^bVehicle was PBS. ^cAverage weight change for each group is the mean difference between weight at the start of treatment (Day 20) and after the end of treatment (Day 42). TVDT was calculated for a size of 500 mg Abbreviations used are as follows: po, oral route; ip, intraperitoneal route; LCK, gross log cell kill calculated as LCK=T−C/(3.32×TVDT) where T-C is the difference in time in days for the treated tumors (T) to reach a predetermined size (tumor target size) relative to the vehicle control group (C) divided by the tumor volume doubling time (TVDT) multiplied by 3.32.
Tumors were propagated in nude mice. Tumor passages occurred every four weeks for human RH41 xenografts. With regard to efficacy testing human tumor xenografts were implanted in nude mice. All tumor passages were subcutaneous (sc).
Antitumor activity was evaluated in terms of: a) cures, and for the murine tumor models, increases in lifespan reflected by the relative median survival time (MST) of treated (T) versus control (C) groups (i.e. % T/C values); and b) primary tumor growth inhibition determined by calculating the relative median times for T and C mice to grow tumors of a predetermined “target” size (1 gm for all sc tumor models described) and expressed as T-C values, in days. The definition of a cured mouse was one whose tumor was undetectable, or <35 mg, when assessed more than 10 tumor volume doubling times (TVDTs) post-treatment. The activity criterion for tumor inhibition/reduction was a statistically significant delay in primary tumor growth consistent with 1 gross log cell kill (LCK). The following formula was employed to calculate LCK: LCK=T−C/(3.32×TVDT)
Where, TVDT=median time (days) for control tumors to reach target size—median time (days) for control tumors to reach half the target size. […] The maximum tolerated dose (MTD) is defined as the dose level immediately […] which excessive toxicity (i.e. more than one death) occurred. […] Statistical evaluations of data were performed using Gehan's generalized Wilcoxon test (Gehan, Biometrika 52:203-223, 1965). Western Blot Analysis of 385A08-Fc

human insulin receptor = target: T2, human insulin receptor (Homo sapiens, UniProt P06213); experiment: BIAcore binding to immobilized human insulin receptor; conditions: percentage of signal for insulin binding at similar concentration
T2 construct: purchased R&D Systems (Minneapolis, Minn.)
Method: One liter E. coli growths of selected optimized clones were prepared and the proteins were purified.
In brief, 60 ug/mL of IR diluted in acetate 4.5 was coupled/immobilized to a level of 8300 RU and 11.9 ug/mL of VEGF-R2-Fc diluted in acetate 5.0 was immobilized to a level of 9700 RU on flow cells 2 and 3. A blank reference surface was prepared on FC1. […] Fibronectin-based scaffold proteins were diluted to 10 uM in HBS-EP (10 mM Hepes 150 mM NaCl 3 mM EDTA 0.05% Surfactant P20) and injected at 20 uL/min for 3 minutes over the flow cells at 25 C and dissociation was observed over 10 mins.

[2] = Size-exclusion chromatography (solution properties, monomericity); type: physicochemical
Method: Size-exclusion chromatography (SEC) was performed using a TSKgel Super SW2000 column (TOSOH Biosciences, LLC), 4.6 mm×30 cm, on an Agilent 1100 HPLC system with UV detection at A214 nm and A280 nm and with fluorescence detection (excitation=280 nm, emission=350 nm). A buffer of 100 mM sodium sulfate, 100 mM sodium phosphate, 150 mM sodium chloride, pH 6.8 at a flow rate of 100 μL/min was employed. Samples (0.1 to 1 μg each) at a concentration of approximately 100 μg/mL were injected separately. Gel filtration standards (Bio-Rad Laboratories, Hercules, Calif.) were used for molecular weight calibration.

[3] = Table 4, optimized 218C04 clones
[4] = Table 7, FG loop optimized 338A06 clones

Row | Molecule | ka (human IGF-IR; [3]) | kd (human IGF-IR; [3]) | Tm ([1]; Table 3) | % IR Binding at 10 μM (human insulin receptor; Table 8) | ka (human IGF-IR; [4]) | kd (human IGF-IR; [4]) | Tm ([1]; Table 9) | also measured
1 | 353F10 (protein) VSDVPRDLEVVAATPTSLLISWPTHYKVARYYRITYGETGGNSPVQEFTVPKHTYTATISGLKPGVDYTITVYAVTTTKGLRHYGPISINYRTHHHHHH | 3.7 1/M*s × 10^+6 | 2.1 1/s × 10^−4 | 59 °C | – | – | – | – | –
2 | 385A08-PEG40: 385A08 (SEQ ID NO: 203) coupled via Cys97 to a mono-functional branched 40 kDa PEG (conjugate, branched 40 kDa PEG via Cys97) GVSDVPRDLEVVAATPTSLLISWSARLKVARYYRITYGETGGNSPVQEFTVPKNVYTATISGLKPGVDYTITVYAVTRFRDYQPISINYRTEIDKPCQ | – | – | – | – | – | – | – | Outcome by (% TGI) (RH41 sarcoma xenografts; 40 mg/kg, TIWx3, 20 ip): A (A % TGI value of >50% was considered active); % TGI (RH41 sarcoma xenografts; 40 mg/kg, TIWx3, 20 ip): 56%; LCK (RH41 sarcoma xenografts; 40 mg/kg, TIWx3, 20 ip): 0.4; off-rate (kd) relative to unmodified 385A08 (human IGF-IR): slightly increased; slower on-rate (ka) relative to unmodified 385A08 (human IGF-IR): approximately 10 fold; ka (human IGF-IR; Table 10, PEGylated variants): 0.6 1/M*s × 10^+6; kd (human IGF-IR; Table 10, PEGylated variants): 2.1 1/s × 10^−4
3 | 353H09 (protein) VSDVPRDLEVVAATPTSLLISWSDKLKVQRYYRITYGETGGNSPVQEFTVPKHDRTATISGLKPGVDYTITVYAVTKMRDYRPISINYRTHHHHHH | 3.8 1/M*s × 10^+6 | 2.2 1/s × 10^−4 | 55 °C | – | – | – | – | % IR Binding at 10 μM (human insulin receptor; Table 5): 0%
4 | 386F10 (protein) VSDVPRDLEVVAATPTSLLISWSARLKVARYYRITYGETGGNSPVQEFTVPKNVYTATISGLKPGVDYTITVYAVTLLRDYGPISINYRTHHHHHH | – | – | – | 3% | 1.9 1/M*s × 10^+6 | 2.3 1/s × 10^−4 | 58 °C | –
5 | 387B01 (protein) VSDVPRDLEVVAATPTSLLISWSARLKVARYYRITYGETGGNSPVQEFTVPKNVYTATISGLKPGVDYTITVYAVTSLRDYGPISINYRTHHHHHH | – | – | – | 0% | 6.5 1/M*s × 10^+6 | 4.4 1/s × 10^−4 | 63 °C | –
6 | 339A01 (protein) VSDVPRDLEVVAATPTSLLISWSTALKVQRYYRITYGETGGNSPVQEFTVPKHSHTATISGLKPGVDYTITVYAVTKMRDYRPISINYRTHHHHHH | 1.2 1/M*s × 10^+6 | 6.7 1/s × 10^−4 | – | – | – | – | – | –
7 | 386A03 (protein) VSDVPRDLEVVAATPTSLLISWSARLKVARYYRITYGETGGNSPVQEFTVPKNVYTATISGLKPGVDYTITVYAVTNLRDYGPISINYRTHHHHHH | – | – | – | 3% | 5.2 1/M*s × 10^+6 | 4.6 1/s × 10^−4 | 62 °C | –
8 | 385A08 (protein) VSDVPRDLEVVAATPTSLLISWSARLKVARYYRITYGETGGNSPVQEFTVPKNVYTATISGLKPGVDYTITVYAVTRFRDYQPISINYRTHHHHHH | – | – | – | 0% | 5.7 1/M*s × 10^+6 | 1.9 1/s × 10^−4 | 59 °C | AVE weight change (RH41 sarcoma xenografts; 20 mg/kg, 2qdx20, 28 ip): 0.6 g; % TGI (RH41 sarcoma xenografts; 20 mg/kg, 2qdx20, 28 ip): 33%; LCK (RH41 sarcoma xenografts; 20 mg/kg, 2qdx20, 28 ip): 0.2; AVE weight change (RH41 sarcoma xenografts; 40 mg/kg, 2qdx20, 28 ip): 1.0 g; % TGI (RH41 sarcoma xenografts; 40 mg/kg, 2qdx20, 28 ip): 19%; LCK (RH41 sarcoma xenografts; 40 mg/kg, 2qdx20, 28 ip): 0.2; ka (human IGF-IR; Table 10, PEGylated variants): 6.9 1/M*s × 10^+6; kd (human IGF-IR; Table 10, PEGylated variants): 1.6 1/s × 10^−4
9 | 338A05 (protein) VSDVPRDLEVVAATPTSLLISWSDSLKVSRYYRITYGETGGNSPVQEFTVPKQYHTATISGLKPGVDYTITVYAVTPSNIIGRHYGPISINYRTHHHHHH | 1.3 1/M*s × 10^+6 | 3.3 1/s × 10^−4 | 68 °C | – | – | – | – | –
10 | 354A10 (protein) VSDVPRDLEVVAATPTSLLISWSNRLVVKRYYRITYGETGGNSPVQEFTVPHQMKTATISGLKPGVDYTITVYAVTPGGYSGRNYGPISINYRTHHHHHH | 1.1 1/M*s × 10^+6 | 1.8 1/s × 10^−4 | 46 °C | – | – | – | – | –
11 | 218C04 (protein) VSDVPRDLEVVAATPTSLLISWSPYLRVARYYRITYGETGGNSPVQEFTVPSSARTATISGLKPGVDYTITVYAVTPSNIIGRHYGPISINYRT | – | – | – | – | – | – | – | Kd (human IGF-IR; clone in solution phase, immobilized IGF-IR): 1.8 nM; solution behaviour by SEC (monomer / aggregation) [2]: virtually all monomeric
